Assay results from patent US20130266574A1 (Regeneron, published 2013).
Like-named read-outs stand apart in the source and are kept apart here.

T1: bovine LPL (bovine, UniProt P11151 29-478)
T1 sequence (looked up): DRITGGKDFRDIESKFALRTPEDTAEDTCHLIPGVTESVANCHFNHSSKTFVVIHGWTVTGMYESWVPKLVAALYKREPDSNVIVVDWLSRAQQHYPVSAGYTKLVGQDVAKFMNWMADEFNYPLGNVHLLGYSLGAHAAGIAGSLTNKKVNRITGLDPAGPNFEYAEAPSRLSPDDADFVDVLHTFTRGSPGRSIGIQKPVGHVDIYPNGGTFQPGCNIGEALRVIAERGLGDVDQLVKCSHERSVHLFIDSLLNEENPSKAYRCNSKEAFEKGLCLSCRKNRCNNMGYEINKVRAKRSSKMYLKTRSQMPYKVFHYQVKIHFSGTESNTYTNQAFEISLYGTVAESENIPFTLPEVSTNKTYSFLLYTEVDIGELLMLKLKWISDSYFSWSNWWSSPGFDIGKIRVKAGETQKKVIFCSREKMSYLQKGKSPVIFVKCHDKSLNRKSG

T2: cynomolgus monkey ANGPTL4 N-terminal region (amino acid residues 1-130 of SEQ ID NO:490) with a C-terminal … (cynomolgus monkey (Macaca fascicularis), UniProt Q9BY76 26-130 (human entry))
T2 construct: also called MfANGPTL4(1-130)-His
T2 chain: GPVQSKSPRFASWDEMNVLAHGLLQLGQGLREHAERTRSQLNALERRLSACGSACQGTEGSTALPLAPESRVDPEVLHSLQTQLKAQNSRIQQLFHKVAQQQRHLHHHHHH

B1: full-length hANGPTL4 (amino acid residues 26-406 of SEQ ID NO:476) with a C-terminal hexa-histidine tag (ligand)
chain: GPVQSKSPRFASWDEMNVLAHGLLQLGQGLREHAERTRSQLSALERRLSACGSACQGTEGSTDLPLAPESRVDPEVLHSLQTQLKAQNSRIQQLFHKVAQQQRHLEKQHLRIQHLQSQFGLLDHKHLDHEVAKPARRKRLPEMAQPVDPAHNVSRLHRLPRDCQELFQVGERQSGLFEIQPQGSPPFLVNCKMTSDGGWTVIQRRHDGSVDFNRPWEAYKAGFGDPHGEFWLGLEKVHSITGDRNSRLAVQLRDWDGNAELLQFSVHLGGEDTAYSLQLTAPVAGQLGATTVPPSGLSVPFSTWDQDHDLRRDKNCAKSLSGGWWFGTCSHSNLNGQYFRSIPQQRQKLKKGIFWKTWRGRYYPLQATTMLIQPMAAEAASHHHHHH
B2: amino acid residues 26-148 of human ANGPTL4 fused in-line to mouse IgG2a (hANGPTL4-mFc) (Fc fusion)
chain: GPVQSKSPRFASWDEMNVLAHGLLQLGQGLREHAERTRSQLSALERRLSACGSACQGTEGSTDLPLAPESRVDPEVLHSLQTQLKAQNSRIQQLFHKVAQQQRHLEKQHLRIQHLQSQFGLLDPGSLEFALERNSGEPRGPTIKPCPPCKCPAPNLLGGPSVFIFPPKIKDVLMISLSPIVTCVVVDVSEDDPDVQISWFVNNVEVHTAQTQTHREDYNSTLRVVSALPIQHQDWMSGKEFKCKVNNKDLPAPIERTISKPKGSVRAPQVYVLPPPEEEMTKKQVTLTCMVTDFMPEDIYVEWTNNGKTELNYKNTEPVLDSDGSYFMYSKLRVEKKNWVERNSYSCSVVHEGLHNHHTTKSFSRTPGK
B3: mANGPTL4-His [R26-S410 of mANGPTL4 (SEQ ID NO: 478) fused with an AS linker to a C-terminal 6-histidine tag] (ligand)
chain: RPAQPEPPRFASWDEMNLLAHGLLQLGHGLREHVERTRGQLGALERRMAACGNACQGPKGKDAPFKDSEDRVPEGQTPETLQSLQTQLKAQNSKIQQLFQKVAQQQRYLSKQNLRIQNLQSQIDLLAPTHLDNGVDKTSRGKRLPKMTQLIGLTPNATHLHRPPRDCQELFQEGERHSGLFQIQPLGSPPFLVNCEMTSDGGWTVIQRRLNGSVDFNQSWEAYKDGFGDPQGEFWLGLEKMHSITGNRGSQLAVQLQDWDGNAKLLQFPIHLGGEDTAYSLQLTEPTANELGATNVSPNGLSLPFSTWDQDHDLRGDLNCAKSLSGGWWFGTCSHSNLNGQYFHSIPRQRQERKKGIFWKTWKGRYYPLQATTLLIQPMEATAASASHHHHHH
B4: H1H268P Fab fragment (Fab, V domains shown)
VH: QVQLQESGAGLLKPSETLSLTCTVYGGSFSIHHWTWIRHPPGKGLEWIGEINHRGSTNYNPSLKSRVTISIDTSKNQFSLKLSAVTAADTAVYYCARGLRFLDWLSSYFDYWGQGTLVTVSS
VL: DIQMTQSPSSLSASVGDRVTITCRASQGISDYLAWYQQKPGKVPNLLIYAASALQSGVPSRFSGSGSGTDFTLTISSLQPEDVATYYCQNYNTAPLTFGGGTKVEIK
notes: Fab made by papain digestion of H1H268P (IgG1); also called H1H268 Fab
B5: H1H284P Fab fragment (Fab, V domains shown)
VH: QVQLVESGGGVVQPGRSLRLSCAASGFTFSSYGMHWVRQAPGKGLEWMAVISFDGGNKNNADSVKGRFTISRDNSKNTLYLQMNSLRAEDTAVYYCAKEGDRSGHPYFYYYGLDVWGQGTTVTVS
VL: DIQLTQSPSFLSASVGDRVTITCWASQGISSYLAWYQQKPGKAPKLLIYAASTLQSGVPSRFSGSGSETEFTLTISSLQPEDFATYYCQQLHSYPLTFGGGTKVEIK
notes: Fab made by papain digestion of H1H284P (IgG1); also called H1H284 Fab

Legend:
bovine LPL [1] = molecular target: T1, bovine LPL; experiment: cell-based or functional assay
bovine LPL [2] = molecular target: T1, bovine LPL; experiment: cell-based or functional assay; remark: listed apart in the source
bovine LPL [3] = molecular target: T1, bovine LPL; experiment: cell-based or functional assay; remark: listed apart in the source
[4] = molecular target: T2, cynomolgus monkey ANGPTL4 N-terminal …; experiment: SPR (Biacore), 25° C., pH 5.75, antigen amino-coupled 1,028 RU
Method: (§1) Kinetic analysis was performed to measure kₐ and kd, and KD values and half-life of antigen/antibody complex dissociation were calculated. The results are shown in Table 4 (H1H268P) and Table 5 (H1H284P).

[5] = molecular target: T2, cynomolgus monkey ANGPTL4 N-terminal …; experiment: SPR (Biacore), 25° C., pH 5.75, antigen amino-coupled 1,028 RU; Fab, not full mAb; pH 5.75
Method: as §1

[6] = molecular target: B2; experiment: SPR (Biacore), 25° C., pH 5.75, antigen captured by anti-mFc
Method: as §1

[7] = molecular target: B2; experiment: SPR (Biacore), 25° C., pH 7.2, antigen captured by anti-mFc
Method: as §1

[8] = molecular target: T2, cynomolgus monkey ANGPTL4 N-terminal …; experiment: SPR (Biacore), 25° C., pH 7.2, antigen amino-coupled 1,028 RU
Method: as §1

[9] = molecular target: B1; experiment: SPR (Biacore), 25° C., pH 7.2, antigen amino-coupled 450 RU
Method: as §1

[10] = molecular target: B1; experiment: SPR (Biacore), 25° C., pH 5.75, antigen amino-coupled 450 RU
Method: as §1

Q: “cynomolgus monkey ANGPTL4 N-terminal region (amino acid residues 26-148) with an N-terminal hexa-histidine tag (from UniProt Q9BY76 26-148) (ligand)” was tested. Which EC50 (nM) of the ANGPTL4 protein in the LPL assay (bovine LPL [1]) did it give?
A: Its EC50 (nM) of the ANGPTL4 protein in the LPL assay is 3.89 nM.

Q: How did the “EC50 (nM) of the ANGPTL4 protein in the LPL inhibition assay” value (bovine LPL [2]) turn out when B1 was run?
A: The value was 4.54 nM.

Q: What about the “EC50 (nM) of the ANGPTL4 protein in the LPL assay” value (bovine LPL [3]) of the same molecule?
A: Its value is 6 nM.

Q: What does the source list for B2?
A: EC50 (nM) of the ANGPTL4 protein in the LPL inhibition assay (bovine LPL [2]): 0.29 nM; EC50 (nM) of the ANGPTL4 protein in the LPL assay (bovine LPL [3]): 0.5 nM

Q: B3 was tested. Which “EC50 (nM) of the ANGPTL4 protein in the LPL assay” value (bovine LPL [3]) did it give?
A: Its value is 0.63 nM.

Q: Which koff [4] does the source give for B4 here?
A: Its koff is 0.00432 s⁻¹.

Q: And the kon [4]?
A: The kon was 312000 M⁻¹ s⁻¹.

Q: And the t1/2 [4]?
A: Its t1/2 is 3 min.

Q: What about the Kd [5] of the same molecule?
A: Its Kd is 13.8 nM.

Q: What about the Kd [6] of the same molecule?
A: The Kd was 17.5 nM.

Q: What about the koff [6] of the same molecule?
A: The koff was 0.00304 s⁻¹.

Q: And the kon [6]?
A: Its kon is 174000 M⁻¹ s⁻¹.

Q: And the t1/2 [6]?
A: The t1/2 was 4 min.

Q: What about the Kd [7] of the same molecule?
A: The Kd was 2 nM.

Q: What about the koff [7] of the same molecule?
A: The koff was 0.000601 s⁻¹.

Q: What about the kon [7] of the same molecule?
A: The kon was 300000 M⁻¹ s⁻¹.

Q: What about the t1/2 [7] of the same molecule?
A: Its t1/2 is 19 min.

Q: What about the Kd [8] of the same molecule?
A: The Kd was 6.42 nM.

Q: And the koff [8]?
A: Its koff is 0.00171 s⁻¹.

Q: What about the kon [8] of the same molecule?
A: The kon was 267000 M⁻¹ s⁻¹.

Q: What about the t1/2 [8] of the same molecule?
A: Its t1/2 is 7 min.

Q: And the Kd [9]?
A: The Kd was 16.3 nM.

Q: And the koff [9]?
A: The koff was 0.0118 s⁻¹.

Q: What about the kon [9] of the same molecule?
A: Its kon is 726000 M⁻¹ s⁻¹.

Q: What about the t1/2 [9] of the same molecule?
A: The t1/2 was 1 min.

Q: What about the Kd [10] of the same molecule?
A: The Kd was 14.8 nM.

Q: What about the koff [10] of the same molecule?
A: Its koff is 0.00657 s⁻¹.

Q: And the kon [10]?
A: The kon was 444000 M⁻¹ s⁻¹.

Q: And the t1/2 [10]?
A: The t1/2 was 2 min.

Q: Which koff [4] does the source give for B5 here?
A: The koff was 0.00619 s⁻¹.

Q: And the kon [4]?
A: Its kon is 724000 M⁻¹ s⁻¹.

Q: What about the t1/2 [4] of the same molecule?
A: Its t1/2 is 2 min.

Q: What about the Kd [5] of the same molecule?
A: The Kd was 8.54 nM.

Q: And the Kd [6]?
A: The Kd was 3.4 nM.

Q: And the koff [6]?
A: The koff was 0.0016 s⁻¹.

Q: What about the kon [6] of the same molecule?
A: The kon was 472000 M⁻¹ s⁻¹.

Q: What about the t1/2 [6] of the same molecule?
A: The t1/2 was 7 min.

Q: And the Kd [7]?
A: The Kd was 0.823 nM.

Q: What about the koff [7] of the same molecule?
A: The koff was 0.000202 s⁻¹.

Q: And the kon [7]?
A: The kon was 245000 M⁻¹ s⁻¹.

Q: What about the t1/2 [7] of the same molecule?
A: The t1/2 was 57 min.

Q: What about the Kd [8] of the same molecule?
A: The Kd was 10.1 nM.

Q: What about the koff [8] of the same molecule?
A: The koff was 0.00313 s⁻¹.

Q: And the kon [8]?
A: The kon was 310000 M⁻¹ s⁻¹.

Q: What about the t1/2 [8] of the same molecule?
A: Its t1/2 is 4 min.

Q: And the Kd [9]?
A: The Kd was 0.31 nM.

Q: And the koff [9]?
A: The koff was 0.000344 s⁻¹.

Q: What about the kon [9] of the same molecule?
A: Its kon is 1.11e+06 M⁻¹ s⁻¹.

Q: What about the t1/2 [9] of the same molecule?
A: The t1/2 was 34 min.

Q: And the Kd [10]?
A: The Kd was 1.44 nM.

Q: What about the koff [10] of the same molecule?
A: Its koff is 0.00173 s⁻¹.

Q: What about the kon [10] of the same molecule?
A: Its kon is 1.21e+06 M⁻¹ s⁻¹.

Q: What about the t1/2 [10] of the same molecule?
A: The t1/2 was 7 min.
